{
  "source": "patent US20250296958A1",
  "about": "“GL[…] E[…]” (THE ADMINISTRATORS OF THE TULANE EDUCATIONAL FUND, priority 2022, published 2025)",
  "key": {"delta opioid receptor [1]": {"biological_target": "delta opioid receptor (UniProt P41143)", "assay": "PDSP receptor binding, selectivity against MOR"}, "delta opioid receptor [2]": {"biological_target": "delta opioid receptor (UniProt P41143)", "assay": "PDSP receptor binding; log of Ki in M"}, "delta opioid receptor [3]": {"biological_target": "delta opioid receptor (UniProt P41143)", "assay": "PDSP receptor binding"}},
  "data": [
    {"substance": "ZH853 (peptide)", "values": [
      {"measurement": "del/mu (ratio of Ki at DOR to Ki at MOR)", "setting": "delta opioid receptor [1]", "result": 291},
      {"measurement": "Log Ki", "setting": "delta opioid receptor [2]", "result": -6.57},
      {"measurement": "Ki", "setting": "delta opioid receptor [3]", "result": 271, "unit": "nM"}
    ]}
  ]
}
